Source: the DeepSol protein solubility set

Assay: soluble on expression in E. coli; label from the status in PepcDB or PDB records

| Sequence | soluble on expression in E. coli |
| --- | --- |
| MAILAFDLGGSSVKYGVWTGKELTNQGSFPTPGSWEEMKAHLYSVYADKRNESISGVAFSSPGVVDEKSQQILGISAIPYIHHFNIYEELEALFGLPVTIENDANCAGLAEIYEGAAKGKKEVLFVVIGTGIGGAIFRNGELYKGAHLYGGEFGLNFLSNGQTFSEIGTAVKMAQRYCERIGVEKQAVTGEEVFELAQRGDEIAREEVNNFYDYLTQGLFGLQFSYDPEMIVLGGGVSAKEGLLAEINRRMLTHLQTFELKDFVPEIVTCHYQNDANLIGAAANFQAKTNWEL | not soluble |
| MAILQIGAGGVGWVVAHKAAQNNDVLGDITIASRTVGKCEKIIESIQKKNNLKDSTKKLEARAVNADDVDSLVALIEEVKPDLVINAGPPWVNMPIMEACYRAKVSYLDTSVAVDLCSEGQQVPEAYDWQWGYREKFEE | not soluble |
| MAIPKLQSYALPTALDIPTNKVNWAFEPERAALLIHDMQDYFVSFWGRNCPMMDQVIANIAALRQYCKEHHIPVYYTAQPKEQSDEDRALLNDMWGPGLTRSPEQQKVVEALTPDEADTVLVKWRYSAFHRSPLEQMLKDTGRNQLIITGVYAHIGCMTTATDAFMRDIKPFMVADALADFSREEHLMALNYVAGRSGRVVMTESLLPTPVPASKAALRALILPLLDETDEPLDDENLIDYGLDSVRMMGLAARWRKVHGDIDFVMLAKNPTIDAWWALLSRGVE | not soluble |
| MAIQLSKGQRIDLTKTNPGLTKAVIGLGWDTNKYSGGHDFDLDASAFLVDAHDNCVNDLDFVFYNNLEHPSGGVIHTGDNRTGEGDGDDEQIIVDFSKIPAHIEKIGITVTIHDAEARSQNFGQVSNAFVRVVDEETQNELLRFDLGEDFSIETAVVVCELYRHGGEWKFNAIGSGFSGGLAALCRNYGLQVLEHHHHHH | soluble |
| MAISGVTLEESVRGAIDDLRMKKSRYVMMCIGADGKKIEVTEVGERSVNYTDLKEKFSTEKPCYVAFDFEYNDAGSKREKLILIQWIPDTARPREKMMYSASRDALSSVSEGYLPIQANDESGLDAEEIIRKVRLHRSVAAALE | soluble |
| MAISVFDMFKIGIGPSSSHTVGPMRAGALFVTELRNQNRLHSVERIEVRLYGSLSATGIGHGSDRATVMGLMGEWPDQIDPSQVNQRIDALRADNQLMLAGEQAITFVWERDMCLLDESLPYHPNGMTLCAYGKTGEVHEQTYYSVGGGFVIDAEQAASGV | not soluble |
| MAITLKTYAYTINRVLYFHTFVKFLFSNLVSFDTFEEIGNDVAVIVFLEHSFTRSHEKRHVCRESLLLSSCNNKLSRIHGLSERISKRYQKPSRGDIVVIRSPENPNKTPIKRVVGVEGDCISFVIDPVKSDESQTIVVPKGHVFVQGDYTHNSRDSRNFGPVPYGLIQGRVLWRDNTTGIVTQVVLDTALLRETTNGLRIKTYQGGSGYVQGIRFTNVEMQDTSAVKISHIMYRNITKSAKAIKFACSDTVPCSHIVLNNVNLEGKDGQVEAYCNSAEGFGYGVYSHNDKGLDQTHKSEEAETGHDEL | soluble |
| MAKERALTLEALRVMDAIDRRGSFAAAADELGRVPSALSYTMQKLEEELDVVLFDRSGHRTKFTNVGRMLLERGRVLLEAADKLTTDAEALARGWETHLTIVTEALVPTPAFFPLIDKLAAKANTQLAIITEVLAGAWERLEQGRADIVIAPDMHFRSSSEINSRKLYTLMNVYVAAPDHPIHQEPEPLSEVTRVKYRGIAVADTARERPVLTVQLLDKQPRLTVSTIEDKRQALLAGLGVATMPYPMVEKDIAEGRLRVVSPESTSEIDIIMAWRRDSMGEAKSWCLREIPKLFNGK | soluble |
| MAKKIVIIGAGAGGGISLSKLRRVLKDEDVDITIIDKLGRTDFQPSYIFLSIGQKRVKDLSRDFNLLNGGHVKTVKDEVVSVDAQNRIVNTLKGKYSYDYLIMSPGPDIKKDSFEGIEATDSVWTLEDSLKLRAKIKEFNGGKILISVSSQWYKCPPVPWEMALLLDDYFRKKNMRDKVEITVAHPVSKPMEMYGPGLSDPFAKMLEKRSIGGLYGKKLLGIDASKKEAVFEDDDRLRFDLSIVAPPHSPPSFIKDNEYLRSKNGWASTNLKDFRNPKYDDIFAIGDVIAPTIQIGMAGVLAHFQADTASSAIAEDIIGYPFIDYNKNAVCIIATGSSGVFSYCDLSAKLTDPSVKFPECRMIGNDPLFRFAHDLYEVNFLSSIYGNRLEHHHHHH | not soluble |
| MAKKLLLVGGGHSNALVLKHWCRHPLADVELTLVSDVRQTPYSGMLPGYLAGFYSYGESHIDLAPLCASAGAIFVQDKAIAVNPEQNLLTTAEGRQLSFDCLSLDIGSTPFIDDIVGAEYGIPAKPVPQFLTAWLALLENIDQNRPKKVTLAIAGGGAGGVELAFNLQARLAKLFPAMGLDMQIWQRGAILLPHHSVQGRKLIERLLVKQNIAVLLNHPVTSIEPEFSPDDNPLTCYKLWSNDHWQSVNAVFLVTQASPAPWLAQSGLSLDSRGFVSVKPTLQSYSHGHIFAAGDVANMIDHPRPKAGVFAVRQGKPLFENLQHYLSHQTLKTFVPQSKYLSLLGTRDGRAIALWGPWASYGHCWWRLKDYIDRQFMAGFSA | soluble |
| MAKLTALTLLGMGLALFDRQKSSFQTRFNVHREVTPVELPNCNLVKGIDNGSEDLEILPNGLAFISSGLKYPGIMSFDPDKSGKILLMDLNEKEPAVSELEIIGNTLDISSFNPHGISTFIDDDNTVYLLVVNHPGSSSTVEVFKFQEEEKSLLHLKTIRHKLLPSVNDIVAVGPEHFYATNDHYFIDPYLKSWEMHLGLAWSFVTYYSPNDVRVVAEGFDFANGINISPDGKYVYIAELLAHKIHVYEKHANWTLTPLRVLSFDTLVDNISVDPVTGDLWVGCHPNGMRIFFYDAENPPGSEVLRIQDILSEEPKVTVVYAENGTVLQGSTVAAVYKGKLLIGTVFHKALYCDL | soluble |
| MAKPIMAKATAVWLVDNTTLSFKQIADFVGMHELEVQGIADGDVAQGVKGFDPIANNQLTQDEIDTAQNNPLHKLKLKFNAAAQGEEKRRGPRYTPLSKRQDRPASILWLVKFHPELTDGQISKLIGTTKPTIQAIRERTHWNISNIQPIDPVALGLCKQSELDMAVQKAAAKKAADAPVMLEHHHHHH | soluble |
| MAKPVVIGSRSFRTQSSALDHYKALLHRYQDGQRIADPADHTDLVALIERFDPVLDAVGEPAKGAGQIAHFERRLNTGIGWSTPGFWVVRQDGTETDFSYIDAVKGRPKGRSQDFYNACRQAVALDLVLAKKQAFAQYGDDQGRVECELTGKMVTIDDAHLDHAWPYFSHMVSGFRAARGWSRDIPDGIVSTPADGQTTATFLDSAVTEAFRAFHHDQAVLRVLSREANLQTASSARRPKVARPVRLALEHHHHHH | soluble |
| MAKRQQRSNKPSSEYTCLGHLVNLIPGKEQKVEITNRNVTTIGRSRSCDVILSEPDISTFHAEFHLLQMDVDNFQRNLINVIDKSRNGTFINGNRLVKKDYILKNGDRIVFGKSCSFLFKYASSSSTDIENDDEKVSSESRSYRSHHHHHH | soluble |
| MAKRVPNMELFVFCEDLEFTQNLDLGYPFMDMTTRDKEEEAYWDMLLMQSCQHGIIANSTYSWWAAYLIENPEKIIIGPKHWLFGHENILCKEWVKIESHFEVKSQKYNALEHHHHHH | soluble |
| MAKSRLLLSELLDQLSFALCIVRNDYVIVKVNEYFESRVIFDGETMQGKNILELFPESADYLKRKIDTALVIESSSFSSWEQKPHLLPFKSSRPVSGEEEQMYQNLEVIPIHSEDGTIEHVCLCVYDVTIQASQQQELKRVSQKLEEEHQSQKVLIKKLEDAQGQLIQSEKMASIGQLSAGIAHEINNPVGFITSNLQTLSDYFNSLEKVLKSITQTIGQSKDTALNEACQKILKQGQVDFILEDTAELITESLEGSSRVMSIVKNLKEFSHVDRSEWSYANLENCIESTLKIINNEIKYNITLEKHYAANVPDVFCQPMQINQVLLNILVNASHAIKGEGTITITLQSAGDDFVEIHIRDTGCGIPEEIRERIFEPFFTTKPVGSGTGLGLSVSYGIINKHNGTISVTSEVGKGSEFTIRLPVNPSAEAVDNTDAKAM | not soluble |
| MAKVRETYVCSACGANTPQWRGQCPTCKAWNTLDAVTVARETRSGVRRQGAPDSVRPRPLRDVSDEGGSPFGTGLEALDRVLGSGLVPGAAILFGGEPGIGKSTLLLQVAGAVAASGRDVLYLSGEESLTQLKGRAERLGVLHERLLAVATSRVEDVFSVLESGTPPALLVLDSVQTLTSDLAEGLPGNVSQVRAVATEVVDRCKRAGTAVLLVGHVTKDGNLAGPRLLEHMVDTVVSLEGDRRQMFRLLRVLKNRFGPNQELLVFQMAQRGLEVVEDPSTFFLGARDPALSGTAVVMAVDGQRPFAVEVQALVTRSYLAIPRRTGLGFDVNRLHLLLAVLEKRLRLNFGQVDIYAKIGGGMRLQDPGMDLALVAAVLSSFYDVALPERAVLWGEVDLNGQVRPVAAHDIRLGQAARLGYGPVLHPGEGRGAVPTVVELQARLFGKSGAPRHNPSELEHHHHHH | not soluble |
| MAKYQSMLVVIDPNQDDQPALRRAVYLHQRIGGRIKAFLPIYDFSYEMTTLLSPDERTAMRQGVIAQRTAWIREQAKFYLESGVPIDVKVVWHNRPFEAIIQEVVSEKHDLLLKMAHQHDKLEAVIFTPTDWHLLRKCPCPVWMVKDQPWPEGGKALVAVNLASEENYHNTLNEKLVRETLSLAEEVNHTEVHLIGAYPVTPINIAIELPDFDPSVYNDAIRGQHLLAMKALRQKFGIDEKFTHVEKGLPEEVIPDLAEHLQAGIVVLGTVGRTGLSAAFLGNTAEQVVDHLRCDLLVLKPEAYQTPVELDDDDDD | not soluble |
| MAKYTRDDILAQAKQLAKMIAETEEVDFFKRAEEKIHQNEKVRTLINELKSLQKQAVNLQHYGKHEALKQVEAKIDAIYEELSQIPIVSEFQQSQSDVNDLLQLVASTISNTVTDEILASTGGDVLRGETGAALRYNKHGGCH | not soluble |
| MALEKLLKVQERLWAPEDLRKKANLQDYAAEYRKSLEDPEGFWGAWARRFHWEKPFEKVLEWTLPEHRWFLGGTTNAVYNALERNVERGLRNKVALLYLAEDGREEKLTYGELLDRVRRLATGLRRLGVGKGDRVVIYMPLTLEGVLAMLATAYIGAIHSVVYAGLGVSALRERILDAQAKLLIAGDVSFRRGKGVDLRSIAEEAIRDLPLKVVWFQRAYKAELAEGHYDFHELLWGNPPEARAEMVDAEHPLFILYTSGSTGKPKGVVHVHGGYMVGTTYHLRTFFDVKDEDVFWATSDIGWIVGHSYIVYAPLLEGITSVLREGAPDHPDPGALWQAVERYRVNVMFTAPTAVRMFMKYGPEWPRKYDLSSLRLLAVAGEPLNPEALKWAYEHLVDGGRRGFVADNWWQTELGGPTLGTPLVLPAKPGFAGVALPGVEAEVVDEEGRPVPPGQGGLLVLKRPFPHMMRTVWGNHERYLRYWQEVPGGVYASGDVASKDEEGYFSVLGRADDVLNVAGHRIGTADVESALVSHPAVAEAAVIGVPDPLKGEAIKAFVVLRLGQTPSEELKEALVQHVRRELGPIATPSEVVFLDKLPKTRSGKILRRLLKAQALGKDPGDLSTLEE | soluble |
| MALIEKNTQFDADKLTANVVGIAADVGKHDSGMHQHHKGQLLYAPQGCMTFALNDSICILPPTKAVWIPPHTPHRAVMTNVVAYRSVYFDCDKFSCPKSIVMIEVNDLLKALINKMALWEWDIEQTKTNATTILFWEEFYQAKQFELTLPLPSDRRLASFRNAMTKDGFIAPD | not soluble |
| MALKATIYKATVNVADLDRNQFLDASLTLARHPSETQERMMLRLLAWLKYADERLQFTRGLCADDEPEAWLRNDHLGIDLWIELGLPDERRIKKACTQAAEVALFTYNSRAAQIWWQQNQSKCAQFANLSVWYLDDEQLAKVSAFADRTMTL | not soluble |
| MALKKHNVFVFSSNYTLYGDMSQRVMNTLAEFTPEIEVYSIDESFLNFEGFELLGDLKIYGTTIRNTVFRNTGIPVSIGIAPTKALAKLSNRIAKKNKEYNHVCVLEHHHHHH | not soluble |
